Two molecules from PMC3489827 (PLoS ONE, 2012) can be followed below.

Experiment [1] concerns the target HeV-G globular head domain (174–602) (Hendra virus) (UniProt O89343). In words: crystal structure.
The target of experiment [2] is T1, Ephrin-B2 (S27-D167) (UniProt P52799 27-167).
T1 construct: also called ephrin-B2 receptor; not shown: Fc, C-terminal, cleaved
T1 sequence (looked up): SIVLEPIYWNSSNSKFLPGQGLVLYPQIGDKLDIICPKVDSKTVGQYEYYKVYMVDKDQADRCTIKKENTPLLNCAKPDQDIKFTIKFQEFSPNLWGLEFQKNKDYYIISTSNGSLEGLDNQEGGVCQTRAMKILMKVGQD
The experiment can be described thus: crystal structure. Particulars: both partners purified.

One may read the stoichiometry N as a count of units in the complex or per binding partner.

On to “HeV-G globular head domain (174–602) (from UniProt O89343 174-602) (domain or fragment)”, for which, in experiment [1], the stoichiometry N stood at 2.

B1: HeV-G globular head domain (174–602) (domain or fragment)
chain: ISQGVSDLVGLPNQICLQKTTSTILKPRLISYTLPINTREGVCITDPLLAVDNGFFAYSHLEKIGSCTRGIAKQRIIGVGEVLDRGDKVPSMFMTNVWTPPNPSTIHHCSSTYHEDFYYTLCAVSHVGDPILNSTSWTESLSLIRLAVRPKSDSGDYNQKYIAITKVERGKYDKVMPYGPSGIKQGDTLYFPAVGFLPRTEFQYNDSNCPIIHCKYSKAENCRLSMGVNSKSHYILRSGLLKYNLSLGGDIILQFIEIADNRLTIGSPSKIYNSLGQPVFYQASYSWDTMIKLGDVDTVDPLRVQWRNNSVISRPGQSQCPRFNVCPEVCWEGTYNDAFLIDRLNWVSAGVYLNSNQTAENPVFAVFKDNEILYQVPLAEDDTNAQKTITDCFLLENVIWCISLVEIYDTGDSVIRPKLFAVKIPAQCS
In the case of B1, the “stoichiometry N” value in experiment [2] stood at 1.
